Experimental data published in paper doi:10.1101/2021.07.23.453482 (bioRxiv, 2021).

Molecular target: the molecule itself
Assay: SEC-MALS

| Protein | stoichiometry N |
| --- | --- |
| BT3796^4S-Gal/GalNAc (enzyme) QTQKSAQTQRVDKRPNIILFMVDDMGWQDTSLPFWTQKTDYNKLYETPNMERLAKQGMMFTQAYASSISSPTRCSLITGTNAARHRVTNWTLQKNTKTDRKDKVLDVPDWNYNGVSQVPGTNNTFVGTSFVQLLKDSGYHTIHCGKAHFGAIDTPGEDPHHWGFEVNIAGHAAGGLASYLGEENYGHNKDGKPISLMAVPGLEKYWGTETFVTEALTLEAIKALNKAKKYNQPFYLYMSQYAIHVPLDKDKRFYDKYKKKGMTDHEAAYATLIEGMDKSLGDLMDWLEKSGEADNTIIIFMSDNGGLAAESYWRDGKLHTQNHPLNSGKGSTYEGGIREPMIVSWPGVVAPGSKCNDYLLIEDFYPTILEMAGIKKYKTVQPIDGISFMPLLKQTRNPSKGRSLFWNMPNNWGNDGPGINFNCAVRKGDWKLIYYYGTGKKELFNIPDDIGESNDLSAQHPDIVKRLSKELGTYLRKVDAQRPTVKATGKPCPWPDEIK | 2 |
| BT3057^4S-Gal/GalNAc (enzyme, Bacteroides thetaiotaomicron, UniProt Q8A397 1-508, looked up) QERPNIIVFLVDDMGLMDTSVPFIADESGQPVRHPLNDWYHTPNMERLAKQGICFSTFYAQSVSSPSRASIMTGQNATRHGVTNWINAESNNRNPFGPPQWNWKGLRKDMPTMPRVLQQAGYKTIHVGKAHFGCMGSEGENPLNIGFDVNIAGSGIGHPGSYYGEWGYGHIKGQKIRAVPDLEKYHGTDTFLSEALTIEANREITKAVEEKRPFYLNMAHYAVHSPFQADKRFLSRYTDPDKNEQARAFATLIEGMDKSLGDIMDQLEKLGIAENTLILFLGDNGGDAPLGDERGYGSSAPLRGKKGTEFEGGMRVPFIAAWAKPEKKSKVQKNLPIEVGSMQTQLGTIMDIYPTVLSVAGCEVPQNYVIDGFDLKKQLSGKVDKKRPESFLMHFPHAHRGSYFTTYRMGDWKLIYYYLPETPKQPKALLYNLKDDPEERNELSAAHPDQCREMIREMSARLEKEGALYPVDKQGNELKPFVYF | 2 |
